Assay results published in patent US20120128584A1 (ONCOTHERAPY SCIENCE, published 2012).

Target: T1, placental cadherin (P-cadherin; CDH3) (human, UniProt P22223 108-829)
T1 construct: Native CDH3 on the surface of the cancer cell lines H358 and KLM-1; also called native CDH3 protein; CDH3 antigen
Assay: hybridoma screening on cancer cells carrying native CDH3
Description: CDH3 gene encoded extracellular domain (SEQ ID NO: 3) was amplified from cDNA pool derived from cancer cells. The product was cloned into the pcDNA3.1 (Invitrogen, CA). To produce CDH3-specific antibody, mice were immunized subcutaneously with the domain expression vector (17.5 mcg/injection) every two weeks for a month. After the confirmation of the titer of antisera, spleenocytes were extracted from the mice and fused to myeloma cells to prepare hybridomas. We screened the hybridomas which can recognize native CDH3 antigen on the surface of the cancer cells. […] The hybridoma clone #6 was used to inject intraperitoneally into mice. The ascites was recovered after 2 to 3 weeks. Finally antibody was purified from the ascites using Protein A column (GE Healthcare, NJ).

T1 sequence (P22223 108-829 limits assumed): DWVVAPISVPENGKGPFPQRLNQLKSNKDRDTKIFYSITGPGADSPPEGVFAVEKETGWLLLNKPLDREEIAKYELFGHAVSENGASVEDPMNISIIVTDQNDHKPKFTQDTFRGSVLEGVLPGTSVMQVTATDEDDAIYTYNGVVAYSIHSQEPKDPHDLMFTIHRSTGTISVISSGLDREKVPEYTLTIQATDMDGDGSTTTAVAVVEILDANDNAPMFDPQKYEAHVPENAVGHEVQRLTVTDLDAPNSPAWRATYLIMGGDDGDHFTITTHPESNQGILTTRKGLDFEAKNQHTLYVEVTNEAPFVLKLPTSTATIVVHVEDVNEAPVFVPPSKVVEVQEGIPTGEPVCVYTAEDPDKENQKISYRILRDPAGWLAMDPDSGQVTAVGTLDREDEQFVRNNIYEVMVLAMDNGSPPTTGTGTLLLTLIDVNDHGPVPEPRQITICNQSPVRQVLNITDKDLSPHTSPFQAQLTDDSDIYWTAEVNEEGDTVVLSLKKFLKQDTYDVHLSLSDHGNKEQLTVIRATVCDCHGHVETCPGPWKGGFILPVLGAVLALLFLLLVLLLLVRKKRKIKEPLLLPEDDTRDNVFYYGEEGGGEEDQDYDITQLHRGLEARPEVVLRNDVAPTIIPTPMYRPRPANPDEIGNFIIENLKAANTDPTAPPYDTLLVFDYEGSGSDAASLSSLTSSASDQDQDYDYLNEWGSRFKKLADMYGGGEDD

binding result: binds
B1: Anti-CDH3 mouse monoclonal antibody produced by hybridoma clone #6 (antibody, V domains shown)
VH: QVQLQQPGAELVKPGTSVKLSCKSSGYTFTSYWIHWVKQRPGHGLEWIGEIDPSDNYTYYNQNFKGKATLTIDKSSSTAYMQLNSLTSEDSAVFYCARSGYGNLFVYWGQGTLVTVSA
VL: QIVLTQSPAIMSSSPGEKVTMSCSATSSVTYMYWYQQKPGSSPKPWIFRTSNLASGVPTRFSGSGSGTSYSLTISSMEAEDAATYYCQHYHIYPRTFGGGTKL
notes: The VL as printed ends at 'TKL'
